Source: patent US20250332277A1, “PROTEIN TYROSINE KINASE 7 ANTIBODIES AND ANTIBODY-DRUG CONJUGATES” (Eli Lilly and Company, priority 2024, published 2025)

Columns and labels:
[1] = test system: NCI-H446 human lung cancer cells; assay: Cell surface binding by flow cytometry, NCI-H446 (medium expression); assay type: cell-based; settings: Cofetuzumab max MFI set at 100%
Experimental: (§1) Certain PTK-7 antibodies of the present disclosure were tested for cell surface binding to three PTK-7 expressing tumor cell lines. Cell lines were selected to represent high, medium, and low receptor densities. OV90-PTK-7, overexpressing engineered ovarian tumor line representing high expression, NCI-H446 human lung cancer cells representing medium endogenous expression and OVCAR-3 human ovarian cancer cells representing low endogenous expression. […] OV90 parental cells and Namalwa-luc-GFP cells were selected as the PTK-7 negative cell lines. Antibody binding was quantified via flow cytometry and both the EC50 of the binding curves and the maximum binding MFI for each antibody were recorded.
(§2) Cells were dissociated using non-enzymatic dissociation buffer for 5 min at 37° C. Cells were counted and aliquoted to a V-bottom polypropylene 96-well plate at 10^5 cells/well. Cells were centrifuged at 1800 rpm×3 min and the supernatant discarded. […]
(§3) Cells were acquired on an Attune Cytpix Cytometer and FCS files generated using Attune™ Cytometric Software (v. 6.0.1). FCS files were then analyzed on FlowJo (v10.8.1). […] Finally, dead cells positive for staining with Zombie Green were excluded and the MFIs of live, Alexa647 positive cells were quantified. Data was graphed and analyzed on GraphPad Prism (v10.1.1).

[2] = test system: OV90-PTK-7; assay: Cell surface binding by flow cytometry, OV90-PTK-7 (high expression); assay type: cell-based, human; settings: Cofetuzumab max MFI set at 100%
Experimental: as §1, §2, §3

[3] = test system: HeLa PTK-7-eGFP overexpressing engineered cells; assay: Internalization / lysosomal trafficking by pHrodo fluorescence imaging; assay type: cell-based, human; settings: 6 μg/ml (40 nM)
Experimental: Single clone HeLa PTK-7-eGFP overexpressing engineered cells were plated at 5,000 cells per well in a 384-well plate (PhenoPlate 384-well, black, optically clear flat-bottom, tissue-culture treated, PerkinElmer 6057308) in complete culture medium (DMEM, +10% FBS+Glutamax+Pen/Strep). Next day, the cells were treated with 6 μg/ml (40 nM) ADCs or antibodies and pHrodo labeling reagent (Zenon™ pHrodo™ iFL IgG labeling reagents, Catalog number: Z25612, Invitrogen™) with concentration of 6 μg/mL (120 nM). The ADCs or antibodies was mixed with pHrodo labeling reagent for at least 10 min prior to adding to the cells. Then, the cells were imaged using the Opera Phenix Plus high-content screening system every 90 min up to 24 hours. Data were processed and analyzed in Harmony and Microsoft Excel and graphed in GraphPad Prism.

[4] = test system: OVCAR-3 human ovarian cancer cells; assay: Cell surface binding by flow cytometry, OVCAR3 (low expression); assay type: cell-based; settings: Cofetuzumab max MFI set at 100%
Experimental: as §1, §2, §3

[5] = test system: OV90-human PTK7 cells; assay: In vitro CDC assay with human serum complement; assay type: cell-based; settings: PTK-7 expressing OV90 cell line, 3 hours
Experimental: OV90 cell line was engineered to express high level of human PTK7, having antibody binding capacity of 500,000 (using MESF quantification kit, Bangs Laboratories). OV90-human PTK7 cells were added in white clear-bottom 96-well tissue culture plates in assay medium (1:1 MCDB105/Medium199+1×GlutaMax+15% Heat Inactivated Fetal Bovine Serum) and incubated in the incubator at 37° C. with 5% CO2 overnight. Next day, 50 μL/well antibodies were added at final working concentration from 200 nM, 1:3 serially diluted in assay medium and incubated at 37° C. with 5% CO2 for one hour. Diluted human serum complement (1:3) was then added at 50 μL/well in assay medium and incubated at 37° C. with 5% CO2 for 3 hours. Plate was read using CellTiter-Glo Luminescent Cell Viability Assay. 100 μL/well CellTiter-Glo reagent were incubated in plates at room temperature for 10 min. Luminescence was read on a SpectraMax M5e. RLUs (Relative Light Units) were obtained with SoftMax Pro 5.4. Percentage of cell killing was calculated against no treatment. Data was graphed and analyzed using GraphPad Prism version 9.5.1.

[6] = test system: OVCAR3; assay: OVCAR3 tumor xenograft model; assay type: in vivo, mice; settings: OVCAR3 (Day 61); single intravenous dose 2 mg/kg
Experimental: Tumors were measured biweekly using a digital caliper.

[7] = test system: Namalwa-Luc-GFP cells co-cultured with NCI-H446; assay: Bystander effect on Namalwa-Luc-GFP co-cultured with NCI-H446 (ONE-Glo); assay type: cell-based; settings: ratio 9:1, 7-days treatment, Namalwa-Luc-GFP killing
Experimental: (§4) In flat clear bottom 96-well plates, OV90-PTK-7: Namalwa-Luc-GFP clone cells were mixed and seeded at a total of 3000 cells/well/100 μL with a ratio of 2:1 in culture medium (1:1 MCDB105: Medium 199+15% Heat Inactivated Fetal Bovine Serum+1×Glutamax). Namalwa-Luc-GFP cells were negative for PTK-7 expression. Plates were incubated at 37° C. with 5% CO2 overnight. Next day, ADCs were added at final working concentration from 50 nM, 1:4 serially diluted in culture medium. Plates were covered with Breathe-Easy® sealing membrane. Plates were read after 5-days treatment using ONE-Glo™ Luciferase Assay System. 100 μL/well ONE-Glo™ Assay reagent was incubated in plates at room temperature for 10 min. Luminescence was read in the SpectraMax M5e. RLUs (Relative Light Units) were obtained with SoftMax Pro 5.4. Percentage of Namalwa-Luc-GFP killing was calculated against no treatment as 0%. Data was graphed and analyzed using Graphpad Prism version v10.1.1. IC50 was determined via log (inhibitor) vs. response (three parameters) curve fitting for ADC cytotoxicity.
In flat clear bottom 96-well plates, NCI-H446: Namalwa-Luc-GFP clone cells were mixed and seeded at a total of 5000 cells/well/100 μL with a ratio of 9:1 in culture medium (RPMI 1640+10% Heat Inactivated Fetal Bovine Serum+1× Glutamax+1 mM sodium pyruvate). […] Plates were read after 7-days treatment using ONE-Glo™ Luciferase Assay System.

[8] = test system: OVCAR-3; assay: ADC cytotoxicity (CellTiter-Glo) on low PTK-7 expressing cells; assay type: cell-based, human; settings: 7 days treatment
Experimental: OVCAR3 cells were seeded in white clear-bottom 96-well tissue culture plates in culture medium (OVCAR3: ATCC modified RPMI 1640+1× GlutaMax+20% Heat Inactivated Fetal Bovine Serum+10 μg/mL bovine insulin). Cells were incubated at 37° C. with 5% CO2 overnight. Next day, ADCs were added at final working concentration from 200 nM, 1:4 serially diluted in culture medium. Plates were covered with Breathe-Easy® sealing membrane and incubated at 37° C. with 5% CO2. Plates were read after 7 days treatment using CellTiter-Glo Luminescent Cell Viability Assay. 100 μL/well CellTiter-Glo reagent were incubated in plates at room temperature for 10 min. Luminescence was read in the SpectraMax M5e. RLUs (Relative Light Units) were obtained with SoftMax Pro 5.4. Percentage of cell killing was calculated against no treatment as 0%. Data was graphed and analyzed using Graphpad Prism version v10.1.1. IC50 was determined via log (inhibitor) vs. response-variable slope (four parameters) curve fitting.

[9] = test system: Namalwa-Luc-GFP cells co-cultured with OV90-PTK-7; assay: Bystander effect on Namalwa-Luc-GFP co-cultured with OV90-PTK-7 (ONE-Glo); assay type: cell-based; settings: OV90-PTK-7 + Namalwa-Luc-GFP, ratio 2:1; 5-days treatment; Namalwa-Luc-GFP killing
Experimental: as §4

B1: Cofetuzumab: humanized anti-PTK-7 IgG1 antibody (hu6M024) with the sequence as disclosed in WO2012112943 (antibody, chains of the INN, looked up, V domains shown)
VH: QVQLVQSGPEVKKPGASVKVSCKASGYTFTDYAVHWVRQAPGKRLEWIGVISTYNDYTYNNQDFKGRVTMTRDTSASTAYMELSRLRSEDTAVYYCARGNSYFYALDYWGQGTSVTVSS
VL: EIVLTQSPATLSLSPGERATLSCRASESVDSYGKSFMHWYQQKPGQAPRLLIYRASNLESGIPARFSGSGSGTDFTLTISSLEPEDFAVYYCQQSNEDPWTFGGGTKLEIK
In the case of B1, the “% of Cofetuzumab (Average Max MFI)” value [1] is reported as 100%, the “% of Cofetuzumab (Average Max MFI)” value [2] is reported as 100% and the “pHrodo intensity signal at 24 hrs” value ([3]; Antibodies) is reported as 2.44 ± 0.14. The “% of Cofetuzumab (Average Max MFI)” value [4] was 100% and the CDC potential [5] was “did not show CDC potential”.

B2: Cofetuzumab-Pelidotin: ADC with a cleavable valine-citrulline linker, auristatin-0101 as the payload with a drug-to-antibody ratio (DAR) of 4 (conjugate, chains of the INN, looked up)
VH: B1 VH
VL: B1 VL
modifications: pelidotin: vc linker, auristatin-0101, DAR 4
In the case of B2, the Mean tumor volume [6] is reported as 352.26 mm^3, the IC50 [7] is reported as 3.18 nM and the “pHrodo intensity signal at 24 hrs” value ([3]; ADCs) is reported as 1.71 ± 0.06. For the same molecule, the IC50 [8] was 2.53 nM and the IC50 [9] was 1.5 nM.

B3: Ab1: fully human PTK-7 antibody, human IgG1-AAS (L234A/L235A/D265S), kappa; HC SEQ ID NO: 2, LC SEQ ID NO: 3 (antibody)
heavy: EVQLVESGGGLVKPGGSLRLSCAASGFTFSSYIMNWVRQAPGKGLEWVSSISSSSTFIYYADSVKGRFTISRDNAKNSLYLQMNSLRAEDTAVYYCAKGFDYWGQGTLVTVSSASTKGPSVFPLAPSSKSTSGGTAALGCLVKDYFPEPVTVSWNSGALTSGVHTFPAVLQSSGLYSLSSVVTVPSSSLGTQTYICNVNHKPSNTKVDKRVEPKSCDKTHTCPPCPAPEAAGGPSVFLFPPKPKDTLMISRTPEVTCVVVSVSHEDPEVKFNWYVDGVEVHNAKTKPREEQYNSTYRVVSVLTVLHQDWLNGKEYKCKVSNKALPAPIEKTISKAKGQPREPQVYTLPPSREEMTKNQVSLTCLVKGFYPSDIAVEWESNGQPENNYKTTPPVLDSDGSFFLYSKLTVDKSRWQQGNVFSCSVMHEALHNHYTQKSLSLSPGK
light: DIQLTQSPSFLSASVGDRVTITCRASQDISSYLVWYQQKPGKAPKLLIYAASTLQSGVPSRFSGSGSGTEFTLTISSLQPEDFATYYCQQLNTYPRTFGQGTKVEIKRTVAAPSVFIFPPSDEQLKSGTASVVCLLNNFYPREAKVQWKVDNALQSGNSQESVTEQDSKDSTYSLSSTLTLSKADYEKHKVYACEVTHQGLSSPVTKSFNRGEC
In the case of B3, the “pHrodo intensity signal at 24 hrs” value ([3]; Antibodies) is reported as 3.00 ± 0.1.

B4: Ab4: fully human PTK-7 antibody, human IgG1-AAS (L234A/L235A/D265S), kappa; HC SEQ ID NO: 32, LC SEQ ID NO: 33 (antibody)
heavy: EVQLVESGGGLVKPGGSLRLSCAASGFTFSSYSMNWVRQAPGKGLEWVSSIDSSSSFIYYADSVKGRFTISRDNAKNSLYLQMNSLRAEDTAVYYCARGTGLFDFWGQGTLVTVSSASTKGPSVFPLAPSSKSTSGGTAALGCLVKDYFPEPVTVSWNSGALTSGVHTFPAVLQSSGLYSLSSVVTVPSSSLGTQTYICNVNHKPSNTKVDKRVEPKSCDKTHTCPPCPAPEAAGGPSVFLFPPKPKDTLMISRTPEVTCVVVSVSHEDPEVKFNWYVDGVEVHNAKTKPREEQYNSTYRVVSVLTVLHQDWLNGKEYKCKVSNKALPAPIEKTISKAKGQPREPQVYTLPPSREEMTKNQVSLTCLVKGFYPSDIAVEWESNGQPENNYKTTPPVLDSDGSFFLYSKLTVDKSRWQQGNVFSCSVMHEALHNHYTQKSLSLSPGK
light: EIVLTQSPGTLSLSPGERATLSCRASQSFSSSYLAWYQQKPGQAPRLLIYGASSRATGIPDRFSGSGSGTDFTLTISRLEPEDFAVYYCQQYGRTPWTFGQGTKVEIKRTVAAPSVFIFPPSDEQLKSGTASVVCLLNNFYPREAKVQWKVDNALQSGNSQESVTEQDSKDSTYSLSSTLTLSKADYEKHKVYACEVTHQGLSSPVTKSFNRGEC
With B4 the “pHrodo intensity signal at 24 hrs” value ([3]; Antibodies) was 2.83 ± 0.18.
